Positions count from the first letter of the chain named. Numbers in names are those of the source.
What was measured:
[1] = biological target: T1, full length human 5T4 (SEQ ID NO: 1) on cells (human, UniProt Q13641 32-420); assay: flow cytometry, MDA-MB-231 cells, FITC secondary [I)A]
T1 construct: Uniprot Q13641; residues 1-31 are the signal peptide; Used both for transfected HEK-293 cells and for 5T4-expressing human tumor cell lines
T1 sequence: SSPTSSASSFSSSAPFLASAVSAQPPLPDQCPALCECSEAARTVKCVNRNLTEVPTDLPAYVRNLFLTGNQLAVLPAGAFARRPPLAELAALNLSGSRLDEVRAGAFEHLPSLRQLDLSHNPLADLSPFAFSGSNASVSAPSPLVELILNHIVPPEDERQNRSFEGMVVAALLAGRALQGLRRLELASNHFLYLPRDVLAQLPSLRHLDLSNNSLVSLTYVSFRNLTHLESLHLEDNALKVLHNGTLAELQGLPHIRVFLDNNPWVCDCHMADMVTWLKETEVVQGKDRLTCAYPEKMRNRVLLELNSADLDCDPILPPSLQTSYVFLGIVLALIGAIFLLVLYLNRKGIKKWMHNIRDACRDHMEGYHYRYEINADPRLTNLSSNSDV
Protocol: (§1) After washing twice in staining buffer, cells were incubated in 50 µL secondary antibody at 4° C. for 30 min. […] Next, cells were washed twice in staining buffer, re-suspended in 120 µL staining buffer and analyzed on a BD LSRFortessa FACS (BD Biosciences, USA). Binding curves were analyzed using non-linear regression (sigmoidal dose-response with variable slope) using GraphPad Prism V7.02 software (GraphPad Software, San Diego, CA, USA).

[2] = biological target: T1, full length human 5T4 (SEQ ID NO: 1) on …; assay: flow cytometry, HeLa cells, FITC secondary [I)A]
Protocol: as §1

[3] = biological target: T1, full length human 5T4 (SEQ ID NO: 1) on …; assay: flow cytometry, HEK-293 cells transfected with human 5T4, FITC secondary [I)A]
Protocol: (§2) Experiments were performed in technical duplicate. After washing twice in staining buffer, cells were incubated in 50 µL secondary antibody at 4° C. for 30 min. […] Cells were washed twice in staining buffer, re-suspended in 30 µL staining buffer and analyzed on an iQue Screener (Intellicyt Corporation, USA). Binding curves were analyzed using non-linear regression (sigmoidal dose-response with variable slope) using GraphPad Prism V7.02 software (GraphPad Software, San Diego, CA, USA).

[4] = biological target: T2, full length cynomolgus monkey 5T4 on transfected HEK-293 cells (cynomolgus monkey, UniProt Q4R8Y9 35-420); assay: flow cytometry, HEK-293 cells transfected with cynomolgus monkey 5T4, FITC secondary [I)A]
T2 construct: Uniprot Q4R8Y9; residues 1-34 are the signal peptide; also called cynomolgus 5T4
T2 sequence: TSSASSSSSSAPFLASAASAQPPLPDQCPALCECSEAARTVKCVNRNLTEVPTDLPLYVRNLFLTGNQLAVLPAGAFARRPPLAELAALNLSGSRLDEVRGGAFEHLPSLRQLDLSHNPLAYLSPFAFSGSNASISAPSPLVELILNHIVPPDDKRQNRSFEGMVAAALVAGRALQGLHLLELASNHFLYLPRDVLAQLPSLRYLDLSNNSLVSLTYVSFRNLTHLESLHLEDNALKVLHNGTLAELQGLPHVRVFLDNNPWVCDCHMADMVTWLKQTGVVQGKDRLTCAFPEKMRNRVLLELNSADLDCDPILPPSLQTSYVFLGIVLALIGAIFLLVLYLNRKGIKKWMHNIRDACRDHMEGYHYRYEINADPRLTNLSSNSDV
Protocol: as §2

[5] = biological target: T2, full length cynomolgus monkey 5T4 on …; assay: flow cytometry, HEK-293 cells transfected with cynomolgus monkey 5T4, PE secondary [II)A]
[6] = biological target: T1, full length human 5T4 (SEQ ID NO: 1) on …; assay: flow cytometry, HEK-293 cells transfected with human 5T4, PE secondary [II)A]
[7] = biological target: T1, full length human 5T4 (SEQ ID NO: 1) on …; assay: flow cytometry, HEK-293 cells transfected with human 5T4, PE secondary [II)B]
[8] = biological target: T1, full length human 5T4 (SEQ ID NO: 1) on …; assay: flow cytometry, HeLa cells, FITC secondary [I)C]
Protocol: as §1

[9] = biological target: T1, full length human 5T4 (SEQ ID NO: 1) on …; assay: flow cytometry, MDA-MB-231 cells, FITC secondary [I)C]
Protocol: Binding of CD3x5T4 bispecific and 5T4 monospecific antibodies to 5T4-positive human tumor cells. Mono- and bivalent binding of 5T4 antibodies to HeLa cells (left panels) or MDA-MB-231 cells (right panels) was determined by flow cytometry. Cells were incubated with increasing concentrations of antibodies. After secondary labelling with FITC-conjugated goat-anti-human IgG F(ab′)2, the MFI was determined by flow cytometry.
as §1

[10] = biological target: T2, full length cynomolgus monkey 5T4 on …; assay: flow cytometry, HEK-293 cells transfected with cynomolgus monkey 5T4, FITC secondary [I)B]
Protocol: as §2

[11] = biological target: T1, full length human 5T4 (SEQ ID NO: 1) on …; assay: flow cytometry, HEK-293 cells transfected with human 5T4, FITC secondary [I)B]
Protocol: as §2

B1: IgG1-5T4-207-FEAR (antibody, V domains shown)
VH: QVQLQQWGAGLLKPSETLSLTCAVYGGSFSGYYWTWIRQPPGKGLEWIGEIDHSESTNYNPSLKSRVTISVDTSKNQFSLKLSSVTAADTAVYYCAGWFGELYHYYYGMDVWGQGTTVTVSS
VL: EIVLTQSPATLSLSPGERATLSCRASQSVSSYLAWYQQKPGQAPRLLIYDASNRATGIPARFSGSGSGTDFTLTISSLEPEDFAVYYCQQRSNWPLTFGGGTKVEIKR
notes: Monospecific, bivalent IgG1 FEAR
B1 was tested, and the “EC50 (read off the curve)” value [1] was roughly 0.03 µg/mL, the “EC50 (read off the curve)” value [2] was roughly 0.008 µg/mL and the “EC50 (read off the curve)” value [3] was roughly 0.05 µg/mL. For the same binder, the “EC50 (read off the curve)” value [4] was roughly 0.06 µg/mL, the “EC50 (read off the curve)” value [5] was roughly 0.08 µg/mL and the “EC50 (read off the curve)” value [6] was roughly 0.08 µg/mL.

B2: IgG1-5T4-226-FEAR (antibody, V domains shown)
VH: B1 VH with T35S, E55G, G97A, Y103W, H104D
VL: EIVLTQSPATLSLSPGERATLSCRASQSVSSFLAWYQQKPGQAPRLLIYDASNRATGIPARFSGSGSGTDFTLTISSLEPEDFAVYYCQQRSNWPLTFGQGTRLEIK
notes: Monospecific, bivalent human IgG1 kappa with L234F, L235E, D265A, K409R (FEAR); also called IgG1-5T4-226-FEAR-FITC
With B2 the “EC50 (read off the curve)” value [7] was roughly 0.02 µg/mL, the “EC50 (read off the curve)” value [8] was roughly 0.01 µg/mL and the “EC50 (read off the curve)” value [9] was roughly 0.04 µg/mL. For the same binder, the “EC50 (read off the curve)” value [10] was roughly 0.08 µg/mL and the “EC50 (read off the curve)” value [11] was roughly 0.1 µg/mL.

— patent US20230257479A1 (Genmab, published 2023)
